Experiment [1] has as its target G2-Rituximab (galactosylated afucosylated glycoform of rituximab) (human). Description: SPR (Biacore T200), 1:1 Langmuir fit. Background: SPR reads the build-up and loss of mass on a sensor chip optically.
Experiment [2] has the same target. Description: flow cytometry of yeast displaying C11, stained with IgG1 G2 (Alexa647) and IgG1 G2F (FITC).
The target is the same in experiment [3]. Description: SPR; drawn table, KD (G2).
The target in experiment [4] is G2F-Rituximab (galactosylated fucosylated glycoform of rituximab) (human). The experiment in a line: SPR (Biacore T200), 1:1 Langmuir fit.
For experiment [5], the target named is G2-Rituximab (galactosylated afucosylated glycoform of rituximab) (human). The experiment in a line: SPR, 1:1 Langmuir global kinetic fit, 1024 to 32 nM in 2-fold steps.

Residue numbers refer to the chain shown, from its start.

The term Kd denotes the free concentration of one partner at which half of the binding sites on the other are occupied at equilibrium, for simple one-to-one binding. The low end stands for a tighter complex, the high end for a looser complex.

B1: C11 (VHH, not shown: small tags and cut ends)
VHH: QVQLQESGGGLVQAGGSLRLSCAASGYISRYHTMGWYRQAPGKEREFVAGITWGGSTYYADSVKGRFTISRDNAKNTVYLQMNSLKPEDTAVYYCAVDGGTYADPYHYYWGQGTQVTVSS
In turn, B1 gave a Kd in experiment [1] of 22800 nM. The molecule also displayed a number printed in the lower right quadrant (IgG1 G2 Alexa647 positive, IgG1 G2F FITC negative) in experiment [2] of 4.

B2: E2 (VHH, not shown: small tags and cut ends)
VHH: B1 VHH with G26S, E46S, S56L, I69V, Y102R
In the case of B2, the Kd in experiment [3] amounted to 4740 nM. This counts as single-digit micromolar.

B3: E4 (VHH, not shown: small tags and cut ends)
VHH: B1 VHH with G26P, G50A
Consider B3, for which the Kd in experiment [3] stood at 2480 nM. Against the preceding molecule, the Kd is about 1.9-fold lower.

B4: D3 (VHH, not shown: small tags and cut ends)
VHH: QVQLQESGGGLVQAGGSLRLSCAASGNISADRYMGWYRQAPGKEREFVAAIGYGGTTYYADSVKGRFTISRDNAKNTVYLQMNSLKPEDTAVYYCAVVDGAHSRHRYWGQGTQVTVSS
Turning to B4, the Kd in experiment [1] is 323 nM; in experiment [4], 1900 nM; in experiment [5] it was 353 nM.
